Like-named read-outs stand apart in the source and are kept apart here.

Experimental findings from article doi:10.1101/2025.11.24.690153 are described below.

Data set [1] concerns the target T1, GtComGD (Geobacillus thermodenitrificans, UniProt A0ABY9Q9R4 29-145).
T1 sequence: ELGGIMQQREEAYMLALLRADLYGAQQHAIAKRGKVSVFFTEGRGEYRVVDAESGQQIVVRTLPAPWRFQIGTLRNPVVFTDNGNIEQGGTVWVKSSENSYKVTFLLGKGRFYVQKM
Briefly: EMSA.

Data set [2] concerns the target T1, GtComGD. The data set is described as follows: BLI.
The target of data set [3] is Geobacillus thermodenitrificans His-MBP-ComGC (Geobacillus thermodenitrificans). Briefly: SEC.
Data set [4] shares this target. The data set is described as follows: SEC. The source holds these as a separate data set. Background: SEC sorts molecules by how far they enter the pores of the column.
Data set [5] has as its target Geobacillus thermodenitrificans His-MBP-ComGD (Geobacillus thermodenitrificans). The data set is described as follows: SEC.
Data set [6] has the same target. The data set is described as follows: SEC. This is another data set of the same source.
For data set [7] the target is unchanged. Briefly: SEC. The source holds these as a separate data set.
In data set [8] the target is T2, BsComGC (Bacillus subtilis PY79, UniProt P25955 28-98).
T2 sequence: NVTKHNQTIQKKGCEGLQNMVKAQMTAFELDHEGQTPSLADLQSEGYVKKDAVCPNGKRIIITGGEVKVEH
The data set is described as follows: pull-down.

In data set [9] the target is T2, BsComGC. Briefly: EMSA. For orientation: A gel shift assay detects complexes by their altered migration in electrophoresis.

In turn, 40 bp dsDNA (EMSA) registered a Kd with GtComGD [1] of 20 µM.

For 2000 bp dsDNA (BLI), the Kd with GtComGD [2] is 96 µM.

Take “Geobacillus thermodenitrificans His-MBP-ComGC (domain or fragment)”: the stoichiometry N in data set [3] and in data set [4] was 2 each time.

In the case of “Geobacillus thermodenitrificans His-MBP-ComGD (domain or fragment)”, the stoichiometry N in [5], in [6] and in [7] was 2 throughout.

For the molecule AAAAAAAAAAAA (ssDNA) [12 nt polyA ssDNA], the binding result with BsComGC [8] is given as “binds”.

On to TTTTTTTTTTTTTTTTTTTTTTCCCACAACAAGCCACCCG (ssDNA) [unstructured ssDNA (BLI, Fig. S3A)], for which the dissociation constant (Kd) with GtComGD [2] was 53 µM. In other words, the double-digit micromolar range.

On to TTTTTTTTTTTTTTTTTTTTTTCCCACAACAAGCCACCCG (ssDNA) [40 nt ssDNA (EMSA, Fig. S3A)], for which the Kd with BsComGC [9] was roughly 100 µM; with GtComGD [1], roughly 13.6 µM.

One may read the Kd as the concentration at which binding is half-saturated. A low value points to higher affinity. Usually stoichiometry N stands for a count of units in the complex or per binding partner.
